# Results taken from article PMC11112747, “Cyanovirin-N Binding to N-Acetyl-D-glucosamine Requires Carbohydrate-Binding Sites on Two Different Protomers” (Biochemistry, 2024).
# Changes are numbered by the printed parent chain. Names and notes keep the numbering of the source. Values joined by “and” are separate entries in the source; they are usually repeats but may differ in a detail not shown here. Equal entries are not always repeated. Where two headings read alike, the source gives them in different places.
# T1: CVN2 (CVN2L0) (Nostoc ellipsosporum, UniProt P81180)
# T1 construct: tandem-linked domain-swapped dimer of two CV-N, zero-linker length; His-tag
# T1 sequence (P81180 1-101): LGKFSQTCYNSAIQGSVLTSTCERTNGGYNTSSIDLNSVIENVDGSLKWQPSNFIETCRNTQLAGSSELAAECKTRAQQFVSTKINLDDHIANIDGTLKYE
# B1: Cyanovirin-N (protein, UniProt P81180 1-101, looked up)
# Cyanovirin-N: T1 sequence (P81180 1-101)
# B2: CVN2: tandem-linked dimeric CVN2 with zero-linker length; tandem repeat of two CV-N molecules (protein, UniProt P81180 1-101, looked up)
# Cyanovirin-N: T1 sequence (P81180 1-101)
# modifications: tandem repeat dimer, zero linker
# notes: tandem-linked dimeric CVN2 with zero-linker length; tandem repeat of two CV-N molecules
# B3: CVN-E41T: CV-N binding-site variant with single-point mutation E41T, generated by alanine to threonine substitution (protein, UniProt P81180 1-101, looked up, variant E41T)
# Cyanovirin-N: T1 sequence (P81180 1-101) with E41T
# Tests used:
# [1] = molecular target: T2, CVN-E41T (Nostoc ellipsosporum, UniProt P81180, E41T); assay: Isothermal titration calorimetry, monomeric CVN-E41T titrated into 6 uM GlcNAc in the cell, PBS pH 7.4, 298 K, one-set of sites model, single biological replicates.; type: binding; settings: n = 1; read-out: Affinity Kd
# T2 construct: His-tag
# Description: (§1) Calorimetric titrations were carried out using an ITC200 device (Malvern Panalytical, Malvern, UK). The concentration of mutant E41T dimer and monomeric variants CVN-E41T or CVN-E41A was 200 μM titrant of these proteins to the ligands ManNAc and GlcNAc in the cell. […] The protein concentrations were 44 μM (304 μM) CVN2L0 and 465 μM CVN-E41T in the ManNAc experiments, respectively, and determined to be between 200 and 300 μM for the GlcNAc experiment. Aliquots (2 μL) of CV-N titrant were injected at 2 min intervals into the sugar solution in the calorimetry cell with a total of 19 injections from a stirring syringe (operated at 750 rpm). […] The values for enthalpy, binding affinity, and stoichiometry from the binding curve and the free energy and entropy of interaction were calculated using Microcal Origin v7.0 (OriginLab, Northampton, Massachusetts, USA) according to the standard expressions: ΔG = −RTln Ka, and ΔG = ΔH–TΔS.
# (§2) The lectin interaction with peptide residues was enhanced or reduced by replacing a single, or two, disulfide bond(s) by ionic residue pairs (Glu and Arg) at positions E58 and R73 in CVN2, resulting in binding of dimannosylated peptide (DM) by double-mutant C58E-C73R (CVN2L0-V5) (Figure S2C) with high polar interactions.[12] […] The binding stoichiometry was calculated from a simplex fit. […]
# [2] = molecular target: T3, CVN-E41A (Nostoc ellipsosporum, UniProt P81180, E41A); assay: Isothermal titration calorimetry, protein titrated into GlcNAc in the cell, PBS pH 7.4, 298 K, one-set of sites model.; type: binding; settings: SEM, n = 3; read-out: affinity Kd
# T3 construct: monomeric variant; His-tag
# Description: (§3) Calorimetric titrations were carried out using an ITC200 device (Malvern Panalytical, Malvern, UK). The concentration of mutant E41T dimer and monomeric variants CVN-E41T or CVN-E41A was 200 μM titrant of these proteins to the ligands ManNAc and GlcNAc in the cell. […] The protein concentrations were 44 μM (304 μM) CVN2L0 and 465 μM CVN-E41T in the ManNAc experiments, respectively, and determined to be between 200 and 300 μM for the GlcNAc experiment. Aliquots (2 μL) of CV-N titrant were injected at 2 min intervals into the sugar solution in the calorimetry cell with a total of 19 injections from a stirring syringe (operated at 750 rpm). Controls were prepared with identical amounts of titrant injected into PBS buffer at pH 7.4 at 298 K, and control values were subtracted from the results of the actual experiments. The values for enthalpy, binding affinity, and stoichiometry from the binding curve and the free energy and entropy of interaction were calculated using Microcal Origin v7.0 (OriginLab, Northampton, Massachusetts, USA) according to the standard expressions: ΔG = −RTln Ka, and ΔG = ΔH–TΔS.
# (§4) Figure 2 ITC data showing the binding of CVN2, mutant E41T dimer, and CVN-E41A to GlcNAc. (A) Schematic representation of monomeric CVN-E41A and dimeric CVN2 binding to GlcNAc. (B) Binding affinity of CVN2 to GlcNAc. Thermogram is shown, and the binding curve fitted to the one-set of sites model. (C) Mutant E41T dimer binds to GlcNAc. Thermogram is shown, and binding analyzed based on one-set of sites binding model. T = 298 K. Ligand in cell. […] Thermogram is shown, and binding analyzed based on one-set of sites binding model. […]
# as §2
# [3] = molecular target: T4, mutant E41T dimer (Nostoc ellipsosporum, UniProt P81180, E41T); assay: as above; type: binding; settings: SEM, n = 3; read-out: affinity Kd
# T4 construct: His-tag
# Description: as §3, §4, §2
# [4] = molecular target: T1, CVN2 (CVN2L0); assay: as above; type: binding; settings: SEM, n = 3; read-out: affinity Kd
# Description: as §3, §4, §2
# [5] = molecular target: T1, CVN2 (CVN2L0); assay: Isothermal titration calorimetry, CVN2 titrated into ManNAc in the cell, PBS pH 7.4, 298 K, one-set of sites model.; type: binding; settings: SEM, n = 3; read-out: affinity Kd
# Description: as §1, with “ΔH–TΔS. […]” for “ΔH–TΔS.”
# Specific carbohydrate–protein interactions with polar and charged residues were delineated from the solution structure with Manα1 → 2Man disaccharide bound to domain B.[5] […] A low-affinity binding site was exposed and calculated to bind ManNAc with micromolar concentrations of CV-N and CVN2 (Figure S1A and Figure 1B). […]
# [6] = molecular target: T4, mutant E41T dimer; assay: Isothermal titration calorimetry, mutant E41T dimer with ManNAc in the cell, PBS pH 7.4, 298 K, calculated with N = 2.; type: binding
# Description: as §1
# In comparison, CV-N binding to GlcNAc, the N-linked glycan unit in N-glycosylation sites that is also part of bacterial cell walls with beta-linked bonds to N-acetylmuramic acid (MurNAc), was rather unspecific and measured in the micromolar range (Figure S1B).
# Figure S1. […] Calculated energies of interaction, affinities, and stoichiometry for CV-N binding and […]
# model. (F) Mutant E41T dimer binding to ManNAc is calculated based on N=2, ligand in the cell analysis. […]
# [7] = STD-NMR interaction with GlcNAc; type: binding; settings: protein 100 μM, carbohydrate/CV-N = 10:1, T = 298 K
# Description: (§5) NMR experiments were performed using a Bruker 600 MHz spectrometer, and STD spectra were obtained with −0.05 ppm as irradiation frequency and 2.94 s of saturation time. An NMR sample of CV-N, its mutant, and dimer were prepared in 100 mM PBS, pH 7.0, each added to the carbohydrate solutions in phosphate buffer for a final protein concentration of 100 μM and a ratio of carbohydrate/CV-N = 10:1.
# [8] = STD-NMR interaction with ManNAc; type: binding; settings: protein 100 μM, carbohydrate/CV-N = 10:1, T = 298 K
# Description: as §5
# [9] = cited from earlier work
# [10] = ITC binding of CV-N, CVN2 and variants to ManNAc; settings: for Kd: two-sets of sites model
# Description: as §3
# [11] = ITC binding of CVN2 to dimannosylated peptide (DM); settings: one-set of sites model, T=298K, Figure S2D
molecule,measurement,setting,value
"CC(=O)N[C@H]1C(O)O[C@H](CO)[C@@H](O)[C@@H]1O (stereo partly drawn) [GlcNAc, N-acetyl-D-glucosamine]",Kd,[1],728 nM and 397 nM and 418 nM
same,Kd,[2],2500 ± 2000 nM
same,Kd,[3],5890 ± 320 nM
same,Kd,[4],852 ± 235 nM
"CC(=O)N[C@@H]1C(O)O[C@H](CO)[C@@H](O)[C@@H]1O (stereo partly drawn) [ManNAc, N-acetylmannosamine]",Kd,[5],1400 ± 139 nM
same,Kd,[6],110000 nM
B1,STD-NMR interaction with GlcNAc,[7],interaction
same,STD-NMR interaction with ManNAc,[8],hydrogen bonding
same,Kd,"[9]; deeper high-affinity binding pocket, read-out: equilibrium Kd",~140 nM
same,Kd,"[9]; domain A (low-affinity site), read-out: Kd",1500 nM
B2,STD-NMR interaction with GlcNAc,[7],interaction
same,Kd,"[10]; site 2, read-out: KD2",2.6 nM
same,Kd,[11],3940 nM
B3,STD-NMR interaction with GlcNAc,[7],interaction
same,STD-NMR interaction with ManNAc,[8],hydrogen bonding
same,binding to ManNAc (ITC),"[10]; one-set of sites model, Figure S3A",no binding
same,Kd,"[10]; site 1, read-out: KD1",712000 nM
same,Kd,"[10]; site 2, read-out: KD2",17600 nM
